In US20240059759A1:
Positions count from the first letter of the chain named. Values joined by “and” are separate entries in the source; they are usually repeats but may differ in a detail not shown here. Equal values may be shown once. Read-outs that look alike come from different tables or passages of the source.

Tests used:
[1] = target: SARS-CoV-2 Spike RBD-His Tag, Sino Biological (SARS-CoV-2)
[2] = target: SARS-CoV-2 Spike RBD-His Tag, Sino Biological (SARS-CoV-2); remark: listed apart in the source
[3] = target: SARS-CoV-2 Spike RBD-His Tag, Sino Biological (SARS-CoV-2); remark: listed apart in the source
[4] = target: SARS-CoV-2 Spike RBD-His Tag, Sino Biological (SARS-CoV-2); remark: listed apart in the source
[5] = target: CoV-2 (SARS-CoV-2)
[6] = target: CoV-2 (SARS-CoV-2); remark: listed apart in the source
[7] = target: CoV-2 (SARS-CoV-2); remark: listed apart in the source
[8] = target: SARS-CoV-2 Spike RBD-His Tag, Sino Biological (SARS-CoV-2); remark: listed apart in the source
[9] = target: SARS-CoV-2 Spike RBD-His Tag, Sino Biological (SARS-CoV-2); remark: listed apart in the source
[10] = target: SARS-CoV-2 Spike RBD-His Tag, Sino Biological (SARS-CoV-2); remark: listed apart in the source
[11] = target: SARS-CoV-2 Spike RBD-His Tag, Sino Biological (SARS-CoV-2); remark: listed apart in the source
[12] = target: SARS-CoV-2 Spike RBD-His Tag, Sino Biological (SARS-CoV-2); remark: listed apart in the source
[13] = target: SARS-CoV-2 Spike RBD-His Tag, Sino Biological (SARS-CoV-2); remark: listed apart in the source
[14] = target: SARS-CoV-2 Spike RBD-His Tag, Sino Biological (SARS-CoV-2); remark: listed apart in the source
[15] = target: SARS-CoV-2 Spike RBD-His Tag, Sino Biological (SARS-CoV-2); remark: listed apart in the source
[16] = target: SARS-CoV-2 Spike RBD-His Tag, Sino Biological (SARS-CoV-2); remark: listed apart in the source
[17] = target: SARS-CoV-2 Spike RBD-His Tag, Sino Biological (SARS-CoV-2); remark: listed apart in the source
[18] = target: SARS-CoV-2 Spike RBD-His Tag, Sino Biological (SARS-CoV-2); remark: listed apart in the source
[19] = target: CoV-2 (SARS-CoV-2); remark: listed apart in the source
[20] = target: CoV-2 (SARS-CoV-2); remark: listed apart in the source
[21] = target: CoV-2 (SARS-CoV-2); remark: listed apart in the source
[22] = target: CoV-2 (SARS-CoV-2); remark: listed apart in the source
[23] = target: SARS-CoV-2 Spike RBD-His Tag, Sino Biological (SARS-CoV-2); remark: listed apart in the source
[24] = target: CoV-2 (SARS-CoV-2); remark: listed apart in the source
[25] = target: SARS-CoV-2 Spike RBD-His Tag, Sino Biological (SARS-CoV-2); remark: listed apart in the source
[26] = target: SARS-CoV-2 Spike RBD-His Tag, Sino Biological (SARS-CoV-2); remark: listed apart in the source
[27] = target: SARS-CoV-2 Spike RBD-His Tag, Sino Biological (SARS-CoV-2); remark: listed apart in the source
[28] = target: SARS-CoV-2 Spike RBD-His Tag, Sino Biological (SARS-CoV-2); remark: listed apart in the source

B1: vhh_tstrep_sars2_pjl1_L_74 (VHH)
VHH: QVQLQESGGGLVQAGGSLRLSCAASGRTFSEYAMGWFRQAPGKEREFVATISWSGGATYQTDSVKGRFTISRDNAKNTVYLQMNSLKPDDTAVYYCAAAGLGTVVSEWDYDYDYWGQGTQVTVSS
Q: B1 was tested. Which xmid (log10) [1] did it give?
A: -0.413

Q: And the xmid (log10) [2]?
A: -0.787

B2: vhh_tstrep_sars2_pjl1_L_144 (VHH)
VHH: B1 VHH with I51S, Q60H
Q: How did the xmid (log10) [3] turn out when B2 was run?
A: -0.0515

Q: And the xmid (log10) [4]?
A: 0.491

B3: vhh_tstrep_sars2_pjl1_L_47 (VHH)
VHH: B1 VHH with A57S, Q60Y, Y112A
Q: For B3, which xmid (log10) [5] is on record?
A: 1.45

Q: What about the xmid (log10) [6] of the same binder?
A: -0.708

Q: What about the xmid (log10) [7] of the same binder?
A: 0.716

B4: vhh_tstrep_sars2_pjl1_L_115 (VHH)
VHH: B1 VHH with Q60H, G100D
Q: Which results are given for B4?
A: xmid (log10) [8]: -0.277; xmid (log10) [9]: 0.0337

B5: vhh_tstrep_sars2_pjl1_L_112 (VHH)
VHH: B1 VHH with Q60H, S63T
Q: How did the xmid (log10) [10] turn out when B5 was run?
A: -1.27

Q: And the xmid (log10) [11]?
A: -1.14

B6: vhh_tstrep_sars2_pjl1_L_80 (VHH)
VHH: B1 VHH with Q60Y, D62R
Q: How did the xmid (log10) [12] turn out when B6 was run?
A: -0.743

Q: What about the xmid (log10) [13] of the same binder?
A: -0.61

B7: vhh_tstrep_sars2_pjl1_L_139 (VHH)
VHH: B1 VHH with Q60H, Y112F
Q: With B7 as the binder, how does the xmid (log10) [14] read?
A: 0.366

B8: vhh_tstrep_sars2_pjl1_L_76 (VHH)
VHH: B1 VHH with Q60E
Q: With B8 as the binder, how does the xmid (log10) [15] read?
A: -0.368

Q: What about the xmid (log10) [16] of the same binder?
A: -0.184

B9: vhh_tstrep_sars2_pjl1_L_99 (VHH)
VHH: B1 VHH with Q60Y, D109A, Y114A
Q: Which xmid (log10) [17] does the source give for B9 here?
A: -0.202

Q: And the xmid (log10) [18]?
A: -0.384

B10: vhh_tstrep_sars2_pjl1_L_1 (VHH)
VHH: B1 VHH with A57S, Q60Y, A97G
Q: What does the source list for B10?
A: xmid (log10) [19]: 0.321; xmid (log10) [5]: 0.839; xmid (log10) [20]: 0.903

B11: vhh_tstrep_sars2_pjl1_L_4 (VHH)
VHH: B1 VHH with A57S, Q60Y, A99G
Q: For B11, which xmid (log10) [19] is on record?
A: -0.0058

Q: And the xmid (log10) [5]?
A: 0.752

Q: And the xmid (log10) [21]?
A: 0.673

B12: vhh_tstrep_sars2_pjl1_L_114 (VHH)
VHH: B1 VHH with Q60H, A98P
Q: Which results are given for B12?
A: xmid (log10) [10]: 0.526; xmid (log10) [11]: 0.263

B13: vhh_tstrep_sars2_pjl1_L_27 (VHH)
VHH: B1 VHH with A57S, Q60Y, G102A
Q: With B13 as the binder, how does the xmid (log10) [6] read?
A: 0.178

Q: What about the xmid (log10) [22] of the same binder?
A: 0.577

Q: What about the xmid (log10) [21] of the same binder?
A: 0.407

B14: vhh_tstrep_sars2_pjl1_L_145 (VHH)
VHH: B1 VHH with W53L, Q60H
Q: B14 was tested. Which xmid (log10) [10] did it give?
A: 0.668

Q: And the xmid (log10) [23]?
A: 0.562

B15: vhh_tstrep_sars2_pjl1_L_35 (VHH)
VHH: B1 VHH with A57S, Q60Y, A98G
Q: For B15, which xmid (log10) [24] is on record?
A: -0.501

Q: What about the xmid (log10) [20] of the same binder?
A: 0.231

Q: And the xmid (log10) [7]?
A: 0.355

B16: vhh_tstrep_sars2_pjl1_L_75 (VHH)
VHH: B1 VHH with Q60S
Q: How did the xmid (log10) [13] turn out when B16 was run?
A: 0.0467

Q: And the xmid (log10) [16]?
A: -0.0338

B17: vhh_tstrep_sars2_pjl1_L_113 (VHH)
VHH: B1 VHH with Q60H, Y110F
Q: For B17, which xmid (log10) [11] is on record?
A: -0.0032

Q: And the xmid (log10) [25]?
A: 0.334

B18: vhh_tstrep_sars2_pjl1_L_79 (VHH)
VHH: B1 VHH with Q60T
Q: For B18, which xmid (log10) [1] is on record?
A: -1.01

Q: What about the xmid (log10) [2] of the same binder?
A: -1.02

B19: vhh_tstrep_sars2_pjl1_L_150 (VHH)
VHH: B1 VHH with T58G, Q60H
Q: How did the xmid (log10) [10] turn out when B19 was run?
A: 0.171

Q: What about the xmid (log10) [3] of the same binder?
A: 0.879

B20: vhh_tstrep_sars2_pjl1_L_77 (VHH)
VHH: B1 VHH with Q60H
Q: B20 was tested. Which xmid (log10) [14] did it give?
A: -1.66 and -1.72

Q: And the xmid (log10) [13]?
A: -1.42

Q: And the xmid (log10) [26]?
A: -1.49

Q: And the xmid (log10) [27]?
A: -1.54

Q: And the xmid (log10) [4]?
A: -1.6

Q: What about the xmid (log10) [16] of the same binder?
A: -1.22

Q: And the xmid (log10) [28]?
A: -1.54

Q: What about the xmid (log10) [8] of the same binder?
A: -1.54

Q: What about the xmid (log10) [9] of the same binder?
A: -1.92
